Experimental findings from patent publication US20110052585A1 (Sanofi, published 2011) are described below.

The target of the experiment is T1, rhIL-23 (human, UniProt Q9NPF7 20-189; P29460 23-328).
T1 construct: Recombinant human IL-23 coated on immunoassay plates; also called IL-23 ligand
T1 sequence (looked up) 1: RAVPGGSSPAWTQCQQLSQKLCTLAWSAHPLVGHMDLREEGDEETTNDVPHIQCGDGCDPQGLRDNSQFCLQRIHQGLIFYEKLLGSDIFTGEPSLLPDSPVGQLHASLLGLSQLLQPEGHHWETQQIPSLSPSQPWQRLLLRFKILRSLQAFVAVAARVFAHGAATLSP
T1 sequence (looked up) 2: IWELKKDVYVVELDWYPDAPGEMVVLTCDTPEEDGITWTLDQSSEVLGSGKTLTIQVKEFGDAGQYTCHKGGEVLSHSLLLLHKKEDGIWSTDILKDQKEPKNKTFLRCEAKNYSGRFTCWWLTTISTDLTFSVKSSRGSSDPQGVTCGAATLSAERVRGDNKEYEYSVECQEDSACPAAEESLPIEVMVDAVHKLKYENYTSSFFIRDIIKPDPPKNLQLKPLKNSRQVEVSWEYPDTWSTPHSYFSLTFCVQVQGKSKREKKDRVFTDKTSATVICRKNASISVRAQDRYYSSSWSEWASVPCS
The experiment in a line: ELISA, ligand coated on plate, conditioned medium with soluble receptor. As for the experimental part: Ligand Binding Assays: Conditioned media containing […] were generated in transfected or virally-infected 293 cells. Receptor concentrations in collected media were determined by ELISA and Western blot. Ligand binding assays were performed on immunoassay plates coated with target ligand rhIL-17 or rhIL-23. Typically conditioned media containing serial dilutions of soluble receptor were incubated with immobilized ligand 1-2 hours at room temperature. Unbound ligand was washed away and bound protein was detected and quantified with receptor-specific detection antibodies, as is performed in an ELISA.
In order to test the ability of the soluble IL-17 and IL-23 receptor fusions to bind to their respective ligands, the following experiments were conducted. In one experiment, the ability of the soluble receptors to bind immobilized ligands was explored. Conditioned media for each receptor was generated from Ad-infected A459 cells and quantified by ELISA as described. Binding was measured on ELISA plates pre-coated with IL-23 or IL-17 ligand. Relative binding was compared to purchased receptor/Fc chimeras (R&D Systems, Minneapolis, Minn.). The control IL-17R/Fc from R&D contains human IL-17R(Met1-Trp320) fused to IEGRMD and human IgG1(Pro100-Lys330). […]

B1: sIL23R-9gly-CH3 (Fc fusion)
chain: GITNINCSGHIWVEPATIFKMGMNISIYCQAAIKNCQPRKLHFYKNGIKERFQITRINKTTARLWYKNFLEPHASMYCTAECPKHFQETLICGKDISSGYPPDIPDEVTCVIYEYSGNMTCTWNAGKLTYIDTKYVVHVKSLETEEEQQYLTSSYINISTDSLQGGKKYLVWVQAANALGMEESKQLQIHLDDIVIPSAAVISRAETINATVPKTIIYWDSQTTIEKVSCEMRYKATTNQTWNVKEFDTNFTYVQQSEFYLEPNIKYVFQVRCQETGKRYWQPWSSPFFHKTPETVPQVTSKAFQHDTWNSGLTVASISTGHLTGGGGGGGGGQPREPQVYTLPPSRDELTKNQVSLTCLVKGFYPSDIAVEWESNGQPENNYKTTPPVLDSDGSFFLYSKLTVDKSRWQQGNVFSCSVMHEALHNHYTQKSLSLSPGK
notes: Fusion to the CH3 domain of human IgG1 only, with no hinge or CH2; It was tested as conditioned medium from adenovirus-infected cells; also called hIL-23R-9gly-CH3 chimera; soluble IL-23r
As to B1, the binding result was “binds”.
